We go through two molecules from patent publication US20230287125A1 (LEPU BIOPHARMA, published 2023).

By EC50 is commonly meant the concentration giving half of the maximal effect. A high value points to weaker potency. By IC50 is commonly meant the concentration at which inhibition is half-maximal. A lower IC50 goes with higher potency. For orientation: Kd means the constant that tells how readily two partners part at equilibrium. A lower Kd goes with tighter binding. By koff is commonly meant the rate constant with which the complex falls apart. Read a high koff as a short-lived complex. Usually kon stands for the second-order rate constant of association. A low value points to slower complex formation.

The target in experiment [1] is T1, human PD-L1-Fc protein (human, UniProt Q9NZQ7 19-238).
T1 construct: coating antigen of the ELISAs; also called rhPD-L1-Fc; not shown: Fc
Put plainly: ELISA, antibody titrated on coated human PD-L1-Fc, OD 450nm; upper left panel (with Hu47C6A3-1). How it is done:
(§1) To evaluate antigen binding activity, the humanized antibodies were subjected to ELISA test. Briefly, microtiter plates were coated with human PD-L1-Fc protein at 0.5 μg/ml in PBS, 100 μl/well at 4° C. overnight, then blocked with 200 μl/well of 1% BSA. Three-fold dilutions of humanized antibodies starting from 10 μg/ml were added to each well and incubated for 1 hour at 37° C. The plates were washed with PBS/Tween and then incubated with mouse-anti-human IgG Fab antibody conjugated with Horse Radish Peroxidase (HRP) for 1 hour at 37° C. After washing, the plates were developed with TMB substrate and analyzed by spectrophotometer at OD 450 nm.
For orientation: In an ELISA, binding on a coated surface is turned into a signal by an enzyme label.

The target in experiment [2] is T1, human PD-L1-Fc protein. Put plainly: receptor blocking ELISA: coated human PD-L1-Fc, blocked ligand biotin-labeled human CD80-Fc (Bio-CD80), OD 450nm; lower left panel (with Hu47C6A3-3). How it is done:
(§2) Briefly, microtiter plates were coated with human PD-L1-Fc protein at 0.5 μg/ml in PBS, 100 μl/well at 4° C. overnight, then blocked with 150 μl/well of 1% BSA at 37° C. for 2 hours. […] The plates were washed with PBS/Tween and then incubated with Streptavidin-HRP for 10 mins at 37° C. After washing, the plates were developed with TMB substrate and analyzed by spectrophotometer at OD 450 nm.

For experiment [3], the target named is T1, human PD-L1-Fc protein. The experiment can be described thus: receptor blocking ELISA: coated human PD-L1-Fc, blocked ligand biotin-labeled human CD80-Fc (Bio-CD80), OD 450nm; upper left panel (with Hu47C6A3-1). The procedure: as §2
Experiment [4] concerns the target T1, human PD-L1-Fc protein. The experiment can be described thus: receptor blocking ELISA: coated human PD-L1-Fc, blocked ligand biotin-labeled human PD-1-Fc (Bio-PD1), OD 450nm; upper right panel (with Hu47C6A3-2). How it is done: as §2
The target of experiment [5] is T1, human PD-L1-Fc protein. The experiment can be described thus: competition ELISA, coated human PD-L1-Fc, biotin-labeled human PD-1-Fc as competitor. How it is done:
Briefly, microtiter plates were coated with human PD-L1-Fc protein at 0.5 μg/ml in PBS, 100 μl/well at 4° C. overnight, then blocked with 150 μl/well of 1% BSA. […] The plates were washed with PBS/Tween and then incubated with Streptavidin-HRP for 10 mins at 37° C. After washing, the plates were developed with TMB substrate and analyzed by spectrophotometer at OD 450 nm.

Experiment [6] addresses T1, human PD-L1-Fc protein. The experiment can be described thus: ELISA, coated human PD-L1 (PD-L1-Fc per paragraph 110). The procedure:
Briefly, microtiter plates were coated with human PD-L1-Fc protein at 0.5 μg/ml in PBS, 100 μl/well at 4° C. overnight, then blocked with 150 μl/well of 1% BSA. […] The plates were washed with PBS/Tween and then incubated with Mouse-anti-human IgG Fab antibody conjugated with Horse Radish Peroxidase (HRP) for 30 mins at 37° C. After washing, the plates were developed with TMB substrate and analyzed by spectrophotometer at OD 450 nm.
(§3) Briefly, microtiter plates were coated with human, mouse, rat and cynomolgus PD-L1 proteins at 0.5 μg/ml in PBS, 100 μl/well at 4° C. overnight, then blocked with 150 μl/well of 1% BSA. Three-fold dilutions of chimeric antibodies starting from 10 μg/ml were added to each well and incubated for 1 hour at 37° C. The plates were washed with PBS/Tween and then incubate with mouse-anti-human IgG Fab antibody conjugated with Horse Radish Peroxidase (HRP) for 30 mins at 37° C. After washing, the plates were developed with TMB substrate and analyzed by spectrophotometer at OD 450 nm.

Another experiment deals with cynomolgus PD-L1 protein (cynomolgus, UniProt G7PSE7 19-238). Put plainly: ELISA, coated cynomolgus PD-L1. The procedure:
(§4) ELISA testing was carried out to evaluate the binding of chimeric antibodies to human, mouse, rat, and cynomolgus PD-L1, respectively.
as §3

The target of experiment [7] is T2, human PD-L1 over-expressed on CHOK1 cells (human, UniProt Q9NZQ7 19-290).
T2 construct: whole, on cells; also called PDL1-CHOK1 cells
Put plainly: flow cytometry (MFI) on PDL1-CHOK1 cells; upper left panel (with Hu47C6A3-1 to -3). The procedure: To evaluate the antigen binding property, the humanized antibodies were analyzed for their binding to PD-L1 overexpressed on mammalian cells by FACS. Briefly, PDL1-CHOK1 cells were firstly incubated with 3-fold serious diluted humanized antibodies starting at 15 μg/ml at 4° C. for 40 mins. After washed by PBS, the Alexa Fluor® 647 AffiniPure Goat Anti-Human IgG (H+L) antibody was added to each well and incubated at 4° C. for 30 mins. The MFI of Alexa Fluor® 647 was evaluated by FACSCanto.
In general terms: Flow cytometry measures light scatter and fluorescence of single cells or particles in a stream.

For experiment [8], the target named is T1, human PD-L1-Fc protein. The experiment can be described thus: ELISA, antibody titrated on coated human PD-L1-Fc, OD 450nm; lower left panel (with Hu47C6A3-3). The procedure: as §1
Experiment [9] has as its target T3, human PD-L1-his tag protein (human, UniProt Q9NZQ7 19-238).
T3 construct: also called human PD-L1-His protein; recombinant PD-L1 protein; not shown: his tag
The experiment can be described thus: SPR (Biacore T200), mAb captured on Protein A chip, PD-L1-his injected. The procedure:
A serial dilution of human PD-L1-his tag protein was injected over captured antibody for 2 mins at a flow rate of 30 μl/min. The antigen was allowed to dissociate for 480-1500 s. All the experiment were carried out on a Biacore T200. Data analysis was carried out using Biacore T200 evaluation software.
On the technique in general: SPR reads the build-up and loss of mass on a sensor chip optically.

The next experiment deals with mouse PD-L1 protein (mouse, UniProt Q9EP73 19-239). The experiment can be described thus: ELISA, coated mouse PD-L1. The procedure:
as §4, §3

Another experiment concerns the target rat PD-L1 protein (rat, UniProt D4AE25 19-239). Put plainly: ELISA, coated rat PD-L1. The procedure: as §4, §3
Experiment [10] concerns the target T1, human PD-L1-Fc protein. Put plainly: receptor blocking ELISA: coated human PD-L1-Fc, blocked ligand biotin-labeled human PD-1-Fc (Bio-PD1), OD 450nm; lower left panel (with Hu47C6A3-3). The procedure:
as §2

Experiment [11] addresses T1, human PD-L1-Fc protein. Put plainly: receptor blocking ELISA: coated human PD-L1-Fc, blocked ligand biotin-labeled human CD80-Fc (Bio-CD80), OD 450nm; upper right panel (with Hu47C6A3-2). The procedure:
as §2

The target of experiment [12] is T1, human PD-L1-Fc protein. Put plainly: ELISA, antibody titrated on coated human PD-L1-Fc, OD 450nm; upper right panel (with Hu47C6A3-2). The procedure:
as §1

In experiment [13] the target is T2, human PD-L1 over-expressed on CHOK1 …. Put plainly: flow cytometry on PDL1-CHOK1 cells. How it is done:
After washing by PBS, Alexa Fluor® 647 AffiniPure Goat Anti-Human IgG (H+L) was added to each well and incubated at 4° C. for 30 mins. Samples were washed twice with FACS buffer. The mean florescence intensity (MFI) of Alexa Fluor® 647 was evaluated by FACSCanto.

In experiment [14] the target is T3, human PD-L1-his tag protein. Put plainly: SPR (Biacore T200), mAb captured on Protein A chip, PD-L1-his injected. How it is done: The binding of the humanized antibodies to recombinant PD-L1 protein (human PD-L1-his tag) was tested by Biacore using a capture method. […] A serial dilution of human PD-L1-his tag protein was injected over captured antibody for 2 mins at a flow rate of 30 μl/min. The antigen was allowed to dissociate for 1500 s. All the experiment were carried out on a Biacore T200.
The source holds these as a separate data set.

The target in experiment [15] is T1, human PD-L1-Fc protein. The experiment can be described thus: receptor blocking ELISA: coated human PD-L1-Fc, blocked ligand biotin-labeled human PD-1-Fc (Bio-PD1), OD 450nm; middle left panel. The procedure:
as §2

For experiment [16], the target named is T1, human PD-L1-Fc protein. The experiment can be described thus: receptor blocking ELISA: coated human PD-L1-Fc, blocked ligand biotin-labeled human CD80-Fc (Bio-CD80), OD 450nm; middle left panel. The procedure: as §2
The target of experiment [17] is T1, human PD-L1-Fc protein. Put plainly: ELISA, antibody titrated on coated human PD-L1-Fc, OD 450nm; upper left panel.
Experiment [18] addresses T2, human PD-L1 over-expressed on CHOK1 …. The experiment can be described thus: flow cytometry (MFI) on PDL1-CHOK1 cells; upper right panel.
Experiment [19] concerns the target T3, human PD-L1-his tag protein. The experiment can be described thus: SPR (Biacore), affinity ranking, PDL1-His.

T2 sequence (Q9NZQ7 19-290): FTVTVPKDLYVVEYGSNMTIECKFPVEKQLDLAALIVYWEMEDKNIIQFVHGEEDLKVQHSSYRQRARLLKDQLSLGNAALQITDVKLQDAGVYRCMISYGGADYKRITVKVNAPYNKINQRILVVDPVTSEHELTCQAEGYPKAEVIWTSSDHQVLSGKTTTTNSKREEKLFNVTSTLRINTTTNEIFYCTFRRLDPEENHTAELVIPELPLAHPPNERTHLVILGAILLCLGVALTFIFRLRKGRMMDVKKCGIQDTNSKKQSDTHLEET
T1 sequence (Q9NZQ7 19-238 limits assumed): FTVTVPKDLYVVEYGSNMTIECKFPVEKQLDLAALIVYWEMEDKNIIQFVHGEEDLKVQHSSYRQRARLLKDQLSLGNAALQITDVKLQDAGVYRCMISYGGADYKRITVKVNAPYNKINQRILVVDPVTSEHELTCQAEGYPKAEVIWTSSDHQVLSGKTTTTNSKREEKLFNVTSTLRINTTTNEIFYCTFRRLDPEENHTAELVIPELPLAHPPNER
T3 sequence (Q9NZQ7 19-238 limits assumed): as above
Sequence of cynomolgus PD-L1 protein (G7PSE7 entry or part of it): as the sequence (Q9NZQ7 19-238 limits assumed) above, with A33T, A34S, S62N, R68Q, Q82R, F173L, T185A, T192I, H215L counted along it
Sequence of rat PD-L1 protein (D4AE25 entry or part of it limits assumed): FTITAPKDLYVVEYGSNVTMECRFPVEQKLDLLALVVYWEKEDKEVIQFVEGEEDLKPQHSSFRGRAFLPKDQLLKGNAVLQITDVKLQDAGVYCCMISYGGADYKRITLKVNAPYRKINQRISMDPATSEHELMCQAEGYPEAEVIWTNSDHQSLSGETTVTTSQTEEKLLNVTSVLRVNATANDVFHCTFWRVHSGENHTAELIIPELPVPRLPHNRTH
Sequence of mouse PD-L1 protein (Q9EP73 19-239 limits assumed): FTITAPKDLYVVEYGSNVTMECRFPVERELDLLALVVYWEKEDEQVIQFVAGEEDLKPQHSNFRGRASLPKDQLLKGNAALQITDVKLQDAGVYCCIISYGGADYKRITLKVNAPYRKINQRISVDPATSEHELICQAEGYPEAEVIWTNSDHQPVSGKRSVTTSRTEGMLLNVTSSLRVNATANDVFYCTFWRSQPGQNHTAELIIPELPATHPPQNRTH

B1: 47C6A3 chimeric mAb (antibody, V domains shown)
VH: DVQLQESGPGLVKPSQSLSLTCTVTGYSITSDYAWNWIRQFPGNKLEWMGYIIYSGSTSYNPSLKSRISITRDTSKNQFFLQLNSVTTEDTATYYCARSTMIATNWFAYWGQGTLVTVSA
VL: DIVMTQSHKFMSTSVVDRVSITCKASQDVSLAVAWYQQKPGQSPKLLIYWASTRHTGVPDRFTGSGSGTDFALTISSVQAEDLALYYCQQHYITPWTFGGGTKLEIK
notes: chimeric mAb of the hybridoma clone; also called 47C6A3-chimera
Regarding B1, the EC50 was 0.0115 µg/mL in the experiment with human PD-L1-Fc protein [1]; 0.0102 µg/mL in the experiment with human PD-L1-Fc protein [6]; 0.00634 µg/mL in the experiment with cynomolgus PD-L1 protein; 0.113 nM in [7]; 0.0176 µg/mL in the experiment with human PD-L1-Fc protein [8]; 0.0124 µg/mL with human PD-L1-Fc protein [12]. In [13], this molecule displayed an EC50 of 0.148 nM. Further, the IC50 with human PD-L1-Fc protein [2] turned out to be 0.439 µg/mL; in the experiment with human PD-L1-Fc protein [3], 0.436 µg/mL; with human PD-L1-Fc protein [4], 0.0857 µg/mL; with human PD-L1-Fc protein [5], 0.0912 µg/mL; with human PD-L1-Fc protein [10] it was 0.099 µg/mL; with human PD-L1-Fc protein [11] it was 0.395 µg/mL. In experiment [9], this molecule registered a Kd of 0.366 nM. For the same molecule, the koff in [9] came to 0.000678 s⁻¹. The molecule further yielded a kon in [9] of 1.85e+06 M⁻¹ s⁻¹. For the same molecule, the binding result with mouse PD-L1 protein and with rat PD-L1 protein was “no binding (tested: dilutions starting from 10 µg/ml)” throughout.

B2: Hu67F3G7-5 (antibody, V domains shown)
VH: EVQLVQSGAEVKKPGASVKVSCKASGYIFTDFWVSWVRQAPGKGLEWIGEIYPNSGVSRYNEKFKGRVTMTVDKSISTAYMELSRLRSDDTAVYYCTKYFGYTYWFGYWGQGTLVTVSS
VL: DIQMTQSPSSLSASVGDRVTITCRASKSVSTYMHWYQQKPGKAPKLLIYSASHLESGVPSRFSGSGSGTDFTLTISSLQPEDFATYYCQQSNELPVTFGGGTKVEIK
notes: humanized
Take B2: the Kd in [14] was 0.0431 nM; in experiment [19], 0.037 nM. Besides, the koff in [14] was 7.92e-05 s⁻¹; in experiment [19] it was 9.71e-05 s⁻¹. In addition, the kon in experiment [14] was 1.84e+06 M⁻¹ s⁻¹; in experiment [19], 2.62e+06 M⁻¹ s⁻¹. Also, the IC50 came to 0.127 µg/mL with human PD-L1-Fc protein [15] and 0.344 µg/mL with human PD-L1-Fc protein [16]. For the same molecule, the EC50 is 0.0133 µg/mL in the experiment with human PD-L1-Fc protein [17] and 0.115 nM in [18].
